According to patent publication US20120171240A1 (UNIVERSITY OF LOUISVILLE RESEARCH FOUNDATION, published 2012):

B1: CSA-hCD40L (fusion of core streptavidin and the extracellular domain of human CD40L) (ligand)
chain: RSHHHHHHITGTWYNQLGSTFIVTAGADGALTGTYESAVGNAESRYVLTGRYDSAPATDGSGTALGWTVAWKNNYRNAHSATTWSGQYVGGAEARINTQWLLTSGATEANAWKSTLVGHDTFTKVKPSAASSEFLDKIEDERNLHEDFVFMKTIQRCNTGERSLSLLNCEEIKSQFEGFVKDIMLNKEETKKENSFEMQKGDQNPQIAAHVISEASSKTTSVLQWAEKGYYTMSNNLVTLENGKQLTVKRQGLYYIYAQVTFCSNREASSQAPFIASLCLKSPGRFERILLRAANTHSSAKPCGQQSIHLGGVFELQPGASVFVNVTDPSQVSHGTGFTSFGLLKL

Key:
[1] = biological target: 4-1BB receptor on mouse T cells (mouse) (UniProt P20334); test: cell-based or functional assay
human CD40 receptor = human CD40 receptor (human, UniProt P25942 21-277); test: cell-based or functional assay
human CD40 receptor, sequence (P25942 21-277): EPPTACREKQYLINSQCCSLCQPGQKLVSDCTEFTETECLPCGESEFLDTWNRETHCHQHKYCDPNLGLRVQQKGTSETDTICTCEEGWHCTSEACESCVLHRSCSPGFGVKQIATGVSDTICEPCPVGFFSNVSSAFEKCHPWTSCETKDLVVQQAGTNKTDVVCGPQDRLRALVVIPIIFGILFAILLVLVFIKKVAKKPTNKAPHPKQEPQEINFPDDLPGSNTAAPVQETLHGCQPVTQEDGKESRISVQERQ

4-1BB receptor on mouse T cells (mouse), sequence (P20334 24-256): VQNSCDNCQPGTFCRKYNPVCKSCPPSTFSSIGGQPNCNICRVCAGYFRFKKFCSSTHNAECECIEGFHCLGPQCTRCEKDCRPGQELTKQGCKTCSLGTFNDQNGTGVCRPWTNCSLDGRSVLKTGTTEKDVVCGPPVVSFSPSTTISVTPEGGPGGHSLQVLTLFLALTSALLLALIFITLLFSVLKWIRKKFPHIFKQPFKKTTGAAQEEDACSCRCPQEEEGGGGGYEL

Molecule | proliferation of CFSE-labeled CD4+CD25- (SP) T cells, percent dividing [1] | proliferation of SP T cells in co-culture with CD4+CD25+ (DP) Treg cells, percent dividing [1] | iNOS production, Western blot, IFN-γ primed CD40KO-human CD40 macrophages (human CD40 receptor) | IL-6 mRNA, RNAse protection assay, murine CD40KO macrophage line expressing human CD40 (human CD40 receptor) | human IL-10 production (printed so; summed up as IL-1β) by human monocytes, ELISA, 18 h (human CD40 receptor)
CSA-4-1BBL fusion protein (ligand) | 60% | 34% |  |  | 
commercially available trimeric recombinant human CD40L (rhsCD40L) (from UniProt P29965 116-261) (ligand) |  |  | 6 fold |  | 
B1 |  |  | 9 fold | 2.8 fold | 5 fold
